Reference: patent US20070160601A1 (published 2007)
Square brackets hold non-standard residues; d marks the D form. cellulose membrane = cellulose membrane solid support, attached through a beta-alanine spacer; sY = N[C@@H](Cc1ccc(OS(=O)(=O)O)cc1)C(=O)O; βAla = NCCC(=O)O

Experiments:
human PSGL-1 on cells [1] = molecular target: T1, human PSGL-1 on cells (human, UniProt Q14242 42-412); experiment: FACS on recombinant CHO cells expressing human PSGL-1 (data not shown)
T1 construct: whole, on cells; One molecule is used for HL-60 cells, recombinant CHO cells and blood cells; The cell type is named in each entry; also called native PSGL-1 expressed on HL-60 cells; recombinant CHO cells expressing human PSGL-1
T1 sequence (looked up): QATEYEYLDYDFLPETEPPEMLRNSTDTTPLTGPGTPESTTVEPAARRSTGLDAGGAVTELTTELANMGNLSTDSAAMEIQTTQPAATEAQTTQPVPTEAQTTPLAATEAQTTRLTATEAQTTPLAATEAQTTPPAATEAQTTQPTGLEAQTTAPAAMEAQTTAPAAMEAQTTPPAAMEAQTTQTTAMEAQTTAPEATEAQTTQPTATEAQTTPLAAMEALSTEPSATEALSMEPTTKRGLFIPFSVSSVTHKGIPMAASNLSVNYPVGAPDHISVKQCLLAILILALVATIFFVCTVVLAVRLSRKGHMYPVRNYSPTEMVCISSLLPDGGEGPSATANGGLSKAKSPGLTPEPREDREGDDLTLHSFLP

[2] = molecular target: T2, peptide EYEYLDyDF (SEQ ID NO:45) (human); experiment: peptide spot array on cellulose membrane, HRP anti-Fc detection
T2 construct: Spot 55 of the peptide array; also called peptide 55
T2 peptide: Ac-EYEYLD[sY]DF-{βAla-cellulose membrane}
Text: Epitope mapping of PSG3. Fmoc-protected amino acids and cellulose membranes modified with polyethylene glycol were purchased from Intavis. Fmoc-protected β-alanine was purchased from Chem-Impex (Wood Dale, Ill.). The arrays were defined on the membranes by coupling a β-alanine spacer, followed by elongation of the peptide chain. Peptides were synthesized using standard DIC/HOBt coupling chemistry as described previously. (See, e.g., Molina et al., Pept. Res. 9:151-155 (1996) and Frank et al., Tetrahedron 48:9217-9232 (1992)). Activated amino acids were spotted using an Abimed ASP 222 robot. Washing and deprotection steps were done manually and the peptides were N-terminally acetylated after the final synthesis cycle.
Following peptide synthesis and side chain deprotection, the membranes were washed in methanol for 10 minutes and in blocker (1% casein in TBS) for 10 minutes. The membranes were then incubated with 1 μg/mL of […] in TBS for 1 hour with gentle shaking. The membranes were washed 4 times for 2 minutes in TBS and then probed with an HRP-conjugated anti-Fc antibody in blocker. After washing with TBS, bound protein was visualized using SuperSignal West reagent (Pierce) and a digital camera (AlphaInnotech FluorImager). Signal intensity reflects the amount of protein bound at each spot.

[3] = molecular target: T3, fully sulfated and glycosylated human PSGL-1 19.ek.Fc fusion protein (human, not fully specified; sulfated tyrosines (y in QATEyEyLDyDFLPETEPPRPMMDDDDK, corresponding to Tyr46, Tyr48 and Tyr51); SLe^x-capped O-glycan; biotinylated in the assays); experiment: BIAcore 2000, biotinylated PSGL-1 19.ek.Fc on streptavidin chip, antibody injected at 0-100 nM
T3 construct: also called PSGL-19.ek.Fc; biotinylated PSGL-1 19.ek.Fc
T3 chain: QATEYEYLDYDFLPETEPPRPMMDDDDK
Experimental: Surface plasmon resonance binding analysis. A BIAcore 2000 instrument (BIAcore AB, Uppsala, Sweden) was used to analyze the interactions between the identified antibodies and biotinylated PSGL-1 19.ek.Fc or derived peptides. Binding experiments were performed at 25° C. using streptavidin-coated sensor chips (BIAcore) and HBS-P buffer (20 mM HEPES [pH 7.4], 150 mM NaCl and 0.005% polysorbate 20 v/v) adjusted to 1 mM for both CaCl₂ and MgCl₂. The streptavidin on the sensor surfaces were condition with three one-minute injections of a solution containing 1 M NaCl and 25 mM NaOH. The chips were regenerated with 5 μL of 0.1% TFA and equilibrated with running buffer. […] Binding kinetics were analyzed using BIAevaluation software (V2.1; Pharmacia Biosensor, Uppsala, Sweden). The response representing the mass of bound monoclonal antibodies was measured in resonance units (RU). […] Binding kinetics of human anti-PSGL-1 monoclonal antibodies to the immobilized PSGL-1 19.ek.Fc was determined under partial mass transport limitations by triplicate injections at a concentration range (0-100 nM) onto the immobilized biotinlylated PSGL-1 19.ek peptide at a flow rate of 30 μL/min, following injection for two minutes. Dissociation was monitored for ten minutes at the same flow rate.

human PSGL-1 on cells [4] = molecular target: T1, human PSGL-1 on cells; experiment: FACS on HL-60 cells, scFv complexed with mouse anti-Myc, FITC secondary
Experimental: Characterization of the antibodies using FACS analysis. The binding specificity of the neutralizing antibodies was assessed by FACS analysis of HL-60 cells as well as in parent and recombinant CHO cells expressing human or rat PSGL-1 (data not shown). For FACS analysis, 0.5×10⁶ cells were incubated in 100 μL HBSS 2 mM CaCl₂, 1% fetal calf serum, NaN₃, containing 15 or 50 μg of the indicated scFvs complexed with 50 μg/ml mouse-anti-Myc-HRP (Roche Applied Sciences, Indianapolis, Ind.). The cells were washed and incubated with 1:100 anti-mouse FITC-conjugated secondary antibody (Roche Applied Sciences, Indianapolis, Ind.). Analysis was performed on viable cells of the mononuclear population with low forward and side scatter properties. As shown in FIG. 7(A) and FIG. 7(B), PSG3, PSG5, and PSG6 scFvs bind to native PSGL-1 expressed on HL-60 cells.

B1: PSG3 full-length bivalent antibody (human IgG4, lambda) (antibody, V domains shown)
VH: QVQLVQSGAEVKKPGSSVRVSCKASGGSFSSYGIHWVQQAPGQGLEWMGRIIPVLRIRNYAQKFHDRVTIDADTSTGTAYMELSSLTSDDTAVYYCAGSRQGVAPTGYWGQGTMVTVSS
VL: QAVLTQPSSLSASPGASASLTCNLRSGIDVGTYRIYWYQQKPGSPPQYLLRYKSDSDKQQGSGVPSRFSGTKDASANAGILLISGLQSEDEADYYCMIWHSNGWVFGGGTKLTVLG
notes: also called full length PSG3; human monoclonal antibody PSG3
Human PSGL-1 on cells [1]
  binding result: binds
[2]
  binding result: binds
[3]
  Ka: ~1.4e+09 M⁻¹

B2: PSG6 full-length bivalent antibody (human IgG4, lambda) (antibody, V domains shown)
VH: EVQLLESGGGLVRPGGSLRLSCAASGFTFSSYAMSWVRQAPGKGLEWVSAISGSGGSTYYADSVKGRFTISRDNSKNTLYLQMNSLRAEDTAVYYCARDKRLTYWGQGTMVTVSS
VL: QSVVTQPPSVSAAPGQKVTISCSGSSSNIGNNYVSWYQQLPGTAPKLLIYDNNKRPSGIPDRFSGSKSGTSATLGITGLQTGDEADYYCGTWDSSLSARVFGGGTKVTVLG
notes: also called human monoclonal antibody PSG6
Human PSGL-1 on cells [1]
  binding result: binds
[3]
  Ka: ~6e+08 M⁻¹

B3: PSG3 scFv (scFv)
scFv: QVQLVQSGAEVKKPGSSVRVSCKASGGSFSSYGIHWVQQAPGQGLEWMGRIIPVLRIRNYAQKFHDRVTIDADTSTGTAYMELSSLTSDDTAVYYCAGSRQGVAPTGYWGQGTMVTVSSGGGGSGGGGSGGGGSAQAVLTQPSSLSASPGASASLTCNLRSGIDVGTYRIYWYQQKPGSPPQYLLRYKSDSDKQQGSGVPSRFSGTKDASANAGILLISGLQSEDEADYYCMIWHSNGWVFGGGTKLTVLGAAAHHHHHH
notes: Human scFv from a phage display library, purified from E. coli periplasm on NiNTA and detected with anti-Myc; also called scFv PSG3
Human PSGL-1 on cells [4]
  binding result: binds

B4: PSG6 scFv (scFv)
scFv: EVQLLESGGGLVRPGGSLRLSCAASGFTFSSYAMSWVRQAPGKGLEWVSAISGSGGSTYYADSVKGRFTISRDNSKNTLYLQMNSLRAEDTAVYYCARDKRLTYWGQGTMVTVSSGGGGSGGGGSGGGGSAQSVVTQPPSVSAAPGQKVTISCSGSSSNIGNNYVSWYQQLPGTAPKLLIYDNNKRPSGIPDRFSGSKSGTSATLGITGLQTGDEADYYCGTWDSSLSARVFGGGTKVTVLGAAAHHHHHH
notes: Human scFv from a phage display library, purified on NiNTA and detected with anti-Myc; also called scFv PSG6
Human PSGL-1 on cells [4]
  binding result: binds
